B1: sp¦P00387¦NB5R3_HUMAN (protein, UniProt P00387 2-301, looked up)
NADH-cytochrome b5 reductase 3: GAQLSTLGHMVLFPVWFLYSLLMKLFQRSTPAITLESPDIKYPLRLIDREIISHDTRRFRFALPSPQHILGLPVGQHIYLSARIDGNLVVRPYTPISSDDDKGFVDLVIKVYFKDTHPKFPAGGKMSQYLESMQIGDTIEFRGPSGLLVYQGKGKFAIRPDKKSNPIIRTVKSVGMIAGGTGITPMLQVIRAIMKDPDDHTVCHLLFANQTEKDILLRPELEELRNKHSARFKLWYTLDRAPEAWDYGQGFVNEEMIRDHLPPPEEEPLVLMCGPPPMIQYACLPNLDHVGHPTERCFVF
B2: sp¦Q16822¦PCKGM_HUMAN (protein, UniProt Q16822 33-640, looked up)
Phosphoenolpyruvate …: LSGDLGQLPTGIRDFVEHSARLCQPEGIHICDGTEAENTATLTLLEQQGLIRKLPKYNNCWLARTDPKDVARVESKTVIVTPSQRDTVPLPPGGARGQLGNWMSPADFQRAVDERFPGCMQGRTMYVLPFSMGPVGSPLSRIGVQLTDSAYVVASMRIMTRLGTPVLQALGDGDFVKCLHSVGQPLTGQGEPVSQWPCNPEKTLIGHVPDQREIISFGSGYGGNSLLGKKCFALRIASRLARDEGWLAEHMLILGITSPAGKKRYVAAAFPSACGKTNLAMMRPALPGWKVECVGDDIAWMRFDSEGRLRAINPENGFFGVAPGTSATTNPNAMATIQSNTIFTNVAETSDGGVYWEGIDQPLPPGVTVTSWLGKPWKPGDKEPCAHPNSRFCAPARQCPIMDPAWEAPEGVPIDAIIFGGRRPKGVPLVYEAFNWRHGVFVGSAMRSESTAAAEHKGKIIMHDPFAMRPFFGYNFGHYLEHWLSMEGRKGAQLPRIFHVNWFRRDEAGHFLWPGFGENARVLDWICRRLEGEDSARETPIGLVPKEGALDLSGLRAIDTTQLFSLPKDFWEQEVRDIRSYLTEQVNQDLPKEVLAELEALERRVHKM
B3: sp¦Q8IX12¦CCAR1_HUMAN (protein, UniProt Q8IX12 1-1150, looked up)
Cell division cycle and …: MAQFGGQKNPPWATQFTATAVSQPAALGVQQPSLLGASPTIYTQQTALAAAGLTTQTPANYQLTQTAALQQQAAAAAAALQQQYSQPQQALYSVQQQLQQPQQTLLTQPAVALPTSLSLSTPQPTAQITVSYPTPRSSQQQTQPQKQRVFTGVVTKLHDTFGFVDEDVFFQLSAVKGKTPQVGDRVLVEATYNPNMPFKWNAQRIQTLPNQNQSQTQPLLKTPPAVLQPIAPQTTFGVQTQPQPQSLLQAQISAASITPLLQTQPQPLLQQPQQKAGLLQPPVRIVSQPQPARRLDPPSRFSGRNDRGDQVPNRKDDRSRERERERRRSRERSPQRKRSRERSPRRERERSPRRVRRVVPRYTVQFSKFSLDCPSCDMMELRRRYQNLYIPSDFFDAQFTWVDAFPLSRPFQLGNYCNFYVMHREVESLEKNMAILDPPDADHLYSAKVMLMASPSMEDLYHKSCALAEDPQELRDGFQHPARLVKFLVGMKGKDEAMAIGGHWSPSLDGPDPEKDPSVLIKTAIRCCKALTGIDLSVCTQWYRFAEIRYHRPEETHKGRTVPAHVETVVLFFPDVWHCLPTRSEWETLSRGYKQQLVEKLQGERKEADGEQDEEEKDDGEAKEISTPTHWSKLDPKTMKVNDLRKELESRALSSKGLKSQLIARLTKQLKVEEQKEEQKELEKSEKEEDEDDDRKSEDDKEEEERKRQEEIERQRRERRYILPDEPAIIVHPNWAAKSGKFDCSIMSLSVLLDYRLEDNKEHSFEVSLFAELFNEMLQRDFGVRIYKSLLSLPEKEDKKEKDKKSKKDERKDKKEERDDETDEPKPKRRKSGDDKDKKEDRDERKKEDKRKDDSKDDDETEEDNNQDEYDPMEAEEAEDEEDDRDEEEMTKRDDKRDINRYCKERPSKDKEKEKTQMITINRDLLMAFVYFDQSHCGYLLEKDLEEILYTLGLHLSRAQVKKLLNKVVLRESCFYRKLTDTSKDEENHEESESLQEDMLGNRLLLPTPTVKQESKDVEENVGLIVYNGAMVDVGSLLQKLEKSEKVRAEVEQKLQLLEEKTDEDEKTILNLENSNKSLSGELREVKKDLSQLQENLKISENMNLQFENQMNKTIRNLSTVMDEIHTVLKKDNVKNEDKDQKSKENGASV
B4: sp¦Q9HAV4¦XPO5_HUMAN (protein, UniProt Q9HAV4 2-1204, looked up)
Exportin-5: AMDQVNALCEQLVKAVTVMMDPNSTQRYRLEALKFCEEFKEKCPICVPCGLRLAEKTQVAIVRHFGLQILEHVVKFRWNGMSRLEKVYLKNSVMELIANGTLNILEEENHIKDALSRIVVEMIKREWPQHWPDMLIELDTLSKQGETQTELVMFILLRLAEDVVTFQTLPPQRRRDIQQTLTQNMERIFSFLLNTLQENVNKYQQVKTDTSQESKAQANCRVGVAALNTLAGYIDWVSMSHITAENCKLLEILCLLLNEQELQLGAAECLLIAVSRKGKLEDRKPLMVLFGDVAMHYILSAAQTADGGGLVEKHYVFLKRLCQVLCALGNQLCALLGADSDVETPSNFGKYLESFLAFTTHPSQFLRSSTQMTWGALFRHEILSRDPLLLAIIPKYLRASMTNLVKMGFPSKTDSPSCEYSRFDFDSDEDFNAFFNSSRAQQGEVMRLACRLDPKTSFQMAGEWLKYQLSTFLDAGSVNSCSAVGTGEGSLCSVFSPSFVQWEAMTLFLESVITQMFRTLNREEIPVNDGIELLQMVLNFDTKDPLILSCVLTNVSALFPFVTYRPEFLPQVFSKLFSSVTFETVEESKAPRTRAVRNVRRHACSSIIKMCRDYPQLVLPNFDMLYNHVKQLLSNELLLTQMEKCALMEALVLISNQFKNYERQKVFLEELMAPVASIWLSQDMHRVLSDVDAFIAYVGTDQKSCDPGLEDPCGLNRARMSFCVYSILGVVKRTCWPTDLEEAKAGGFVVGYTSSGNPIFRNPCTEQILKLLDNLLALIRTHNTLYAPEMLAKMAEPFTKALDMLDAEKSAILGLPQPLLELNDSPVFKTVLERMQRFFSTLYENCFHILGKAGPSMQQDFYTVEDLATQLLSSAFVNLNNIPDYRLRPMLRVFVKPLVLFCPPEHYEALVSPILGPLFTYLHMRLSQKWQVINQRSLLCGEDEAADENPESQEMLEEQLVRMLTREVMDLITVCCVSKKGADHSSAPPADGDDEEMMATEVTPSAMAELTDLGKCLMKHEDVCTALLITAFNSLAWKDTLSCQRTTSQLCWPLLKQVLSGTLLADAVTWLFTSVLKGLQMHGQHDGCMASLVHLAFQIYEALRPRYLEIRAVMEQIPEIQKDSLDQFDCKLLNPSLQKVADKRRKDQFKRLIAGCIGKPLGEQFRKEVHIKNLPSLFKKTKPMLETEVLDNDGGGLATIFEP
B5: sp¦Q9BUQ8¦DDX23_HUMAN (protein, UniProt Q9BUQ8 1-820, looked up)
Probable ATP-dependent RNA …: MAGELADKKDRDASPSKEERKRSRTPDRERDRDRDRKSSPSKDRKRHRSRDRRRGGSRSRSRSRSKSAERERRHKERERDKERDRNKKDRDRDKDGHRRDKDRKRSSLSPGRGKDFKSRKDRDSKKDEEDEHGDKKPKAQPLSLEELLAKKKAEEEAEAKPKFLSKAEREAEALKRRQQEVEERQRMLEEERKKRKQFQDLGRKMLEDPQERERRERRERMERETNGNEDEEGRQKIREEKDKSKELHAIKERYLGGIKKRRRTRHLNDRKFVFEWDASEDTSIDYNPLYKERHQVQLLGRGFIAGIDLKQQKREQSRFYGDLMEKRRTLEEKEQEEARLRKLRKKEAKQRWDDRHWSQKKLDEMTDRDWRIFREDYSITTKGGKIPNPIRSWKDSSLPPHILEVIDKCGYKEPTPIQRQAIPIGLQNRDIIGVAETGSGKTAAFLIPLLVWITTLPKIDRIEESDQGPYAIILAPTRELAQQIEEETIKFGKPLGIRTVAVIGGISREDQGFRLRMGCEIVIATPGRLIDVLENRYLVLSRCTYVVLDEADRMIDMGFEPDVQKILEHMPVSNQKPDTDEAEDPEKMLANFESGKHKYRQTVMFTATMPPAVERLARSYLRRPAVVYIGSAGKPHERVEQKVFLMSESEKRKKLLAILEQGFDPPIIIFVNQKKGCDVLAKSLEKMGYNACTLHGGKGQEQREFALSNLKAGAKDILVATDVAGRGIDIQDVSMVVNYDMAKNIEDYIHRIGRTGRAGKSGVAITFLTKEDSAVFYELKQAILESPVSSCPPELANHPDAQHKPGTILTKKRREETIFA

System: human HL60 cells
Assay: SWATH-MS proteomics, differential protein representation, akirin2 KO vs WT HL60 cells
Type: cell-based
Conditions: akirin2 KO vs WT HL60 cells; sheet "Under-represented in KO"
Outline: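 Read-out is label-free SWATH-MS protein area, globally normalized to total detected-protein area, with identifications held at 1% FDR against a library from information-dependent acquisition.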

Point of comparison: B3, “Fold Change” value 0.4166. Against it:
- B1 — lower, 0.3747
- B2 — lower, 0.1415
- B4 — lower, 0.4142
- B5 — higher, 0.4207

Point of comparison: B4, “Log (Fold Change)” value -0.3828. Against it:
- B1 — within 0.2 log units, -0.4263
- B2 — lower, -0.8493
- B3 — within 0.2 log units, -0.3803
- B5 — within 0.2 log units, -0.376

Reference: paper PMC8298264, “Function of cofactor Akirin2 in the regulation of gene expression in model human neutrophil-like HL60 cells” (Bioscience Reports, 2021)
